One may read the koff as a measure of how fast the partners let go of each other. Read a high koff as fast dissociation. Broadly, the kon is a measure of how fast the partners come together. In general, pEC50 refers to −log10 of the EC50, conventionally taken in molar units. One may read the pIC50 as the negative decadic logarithm of the IC50, by convention in mol/L. A high value points to a small IC50. The pKd is −log10 of the Kd, conventionally taken in molar units. Read a low pKd as a large Kd.

For test [1], the target named is human LAG-3-His (human) (UniProt P18627). Briefly: BLI (ForteBio), antibody on AHQ tip, human LAG-3-His 100 nM in solution.
Test [2] concerns the target human LAG-3 overexpressed on HEK293 cells (human) (UniProt P18627). Description: flow cytometry on 293-hLAG-3 cells, MFI curve. For orientation: In flow cytometry, cells or beads pass a laser one at a time.
Test [3] addresses rhLAG3 protein (huFc) (human) (UniProt P18627). Description: flow cytometry, blocking of rhLAG3 (huFc) 20 nM binding to HLA-DR on CHO-DR cells.
Test [4] concerns the target human LAG-3 overexpressed on HEK293 cells (human) (UniProt P18627). Description: flow cytometry on 293-hLAG-3 cells, MFI curve. The source holds these as a separate data set.
Test [5] deals with human LAG-3-His (human) (UniProt P18627). Description: BLI (ForteBio), antibody on AHQ tip, human LAG-3-His 100 nM in solution, univalent.
Test [6] deals with LAG-3 on activated human CD4+ T cells (human) (UniProt P18627). Briefly: flow cytometry on activated human CD4+ T cells, MFI curve.

pEC50, pIC50, pKd: −log10 of the molar value. Where two headings read alike, the source gives them in different places.

human LAG-3-His (human), sequence (P18627 23-450 limits assumed): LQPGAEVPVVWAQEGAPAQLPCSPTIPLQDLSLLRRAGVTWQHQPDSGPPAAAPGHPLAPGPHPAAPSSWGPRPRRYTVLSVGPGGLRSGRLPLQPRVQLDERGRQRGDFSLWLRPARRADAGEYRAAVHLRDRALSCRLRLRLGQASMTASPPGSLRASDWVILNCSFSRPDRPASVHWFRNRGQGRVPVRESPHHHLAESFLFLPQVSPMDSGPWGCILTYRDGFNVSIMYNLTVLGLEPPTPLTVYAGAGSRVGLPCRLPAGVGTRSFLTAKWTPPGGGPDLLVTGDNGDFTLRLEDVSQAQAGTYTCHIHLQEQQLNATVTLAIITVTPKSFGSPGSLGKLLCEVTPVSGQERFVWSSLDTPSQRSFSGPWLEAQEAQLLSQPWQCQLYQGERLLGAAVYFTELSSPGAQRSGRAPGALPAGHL
human LAG-3 overexpressed on HEK293 cells (human), sequence (P18627 23-525): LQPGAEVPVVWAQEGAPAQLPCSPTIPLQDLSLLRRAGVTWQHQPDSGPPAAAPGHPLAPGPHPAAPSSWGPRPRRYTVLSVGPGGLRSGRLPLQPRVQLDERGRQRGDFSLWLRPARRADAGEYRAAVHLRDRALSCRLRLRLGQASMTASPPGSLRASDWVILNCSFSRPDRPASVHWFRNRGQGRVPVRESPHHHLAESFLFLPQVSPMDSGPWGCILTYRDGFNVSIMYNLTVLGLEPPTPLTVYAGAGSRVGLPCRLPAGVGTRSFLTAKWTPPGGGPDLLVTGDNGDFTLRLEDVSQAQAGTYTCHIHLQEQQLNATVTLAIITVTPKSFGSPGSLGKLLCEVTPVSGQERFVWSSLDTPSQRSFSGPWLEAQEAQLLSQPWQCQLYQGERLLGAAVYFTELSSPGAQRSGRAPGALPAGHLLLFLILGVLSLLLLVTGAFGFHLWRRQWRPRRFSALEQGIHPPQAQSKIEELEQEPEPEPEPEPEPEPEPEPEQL
LAG-3 on activated human CD4+ T cells (human), sequence (P18627 23-525): as above
rhLAG3 protein (huFc) (human), sequence (P18627 23-450 limits assumed): as the sequence (P18627 23-450 limits assumed) above

Consider 25F7 (antibody), for which, in test [1], the dissociation rate constant (koff) came out at 0.00101 s⁻¹. In addition, the kon in test [1] worked out at 112000 M⁻¹ s⁻¹. The pEC50 is 8.48 in test [2], 8.59 in test [4] and 10.44 in test [6]. Also, the pIC50 in test [3] was 8.29. The substance further had a negative-log Kd (pKd) in test [5] of 8.04.

The values are drawn from US20210371529A1.
